Measurements: patent publication US20220119534A1 (DRAGONFLY THERAPEUTICS, published 2022)
Several values for one entry are separate records, joined by “and”; a condition that tells them apart may be missing. Equal values may be shown once.

Key:
mFc-hNKG2D = target: T1, mFc-hNKG2D (human, UniProt P26718 73-216); assay: SPR Biacore 8K 37 C; mFc-hNKG2D captured on anti-mFc chip, TriNKET as analyte; 1:1 kinetic fit
T1 construct: extracellular domain; Made in house (Dragonfly Tx); the order of tag and ECD follows the name mFc-hNKG2D; also called mFc-tagged human NKG2D; not shown: mouse Fc tag
T1 sequence (looked up): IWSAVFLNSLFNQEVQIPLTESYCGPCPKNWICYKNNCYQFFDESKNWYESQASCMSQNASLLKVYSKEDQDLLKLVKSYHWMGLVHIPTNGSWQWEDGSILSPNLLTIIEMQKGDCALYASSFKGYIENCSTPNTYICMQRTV

[1] = target: T2, Human CD16a V158 (FcγRIIIa V158) (human, UniProt P08637 17-208, biotinylated); assay: SPR; after pH 8, 40C, 2 wks
T2 construct: Bought recombinant receptor; also called hCD16aV; hFcγRIIIa V158
T2 sequence (P08637 17-208 F176V limits assumed): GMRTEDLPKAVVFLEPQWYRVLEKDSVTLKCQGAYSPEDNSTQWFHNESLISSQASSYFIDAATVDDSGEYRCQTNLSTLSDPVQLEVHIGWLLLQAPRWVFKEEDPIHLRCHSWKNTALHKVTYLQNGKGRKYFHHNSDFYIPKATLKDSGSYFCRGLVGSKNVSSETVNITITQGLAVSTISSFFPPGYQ

[2] = target: T2, Human CD16a V158 (FcγRIIIa V158); assay: SPR; after pH 5.0, 40C, 2 wks
[3] = target: T3, Human CLEC12A expressed on cells (Ba/F3-hCLEC12A, PL21, HL60) (human, UniProt Q5QGZ9 1-265); assay: cell-based or functional assay
T3 sequence: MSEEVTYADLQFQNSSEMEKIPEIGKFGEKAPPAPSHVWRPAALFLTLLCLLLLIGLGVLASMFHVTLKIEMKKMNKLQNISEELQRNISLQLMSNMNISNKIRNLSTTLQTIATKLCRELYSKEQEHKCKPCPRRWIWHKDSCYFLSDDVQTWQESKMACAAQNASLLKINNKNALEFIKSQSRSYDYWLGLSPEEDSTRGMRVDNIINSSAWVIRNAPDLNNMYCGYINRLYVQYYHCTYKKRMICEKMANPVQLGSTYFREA

[4] = target: T4, Human CLEC12A-His (recombinant, K244 WT) (human, UniProt Q5QGZ9 65-265); assay: SPR, two-state fit (ka1); control sample
T4 construct: Made in house (Dragonfly Tx); also called hCLEC12A; hCLEC12A-His; not shown: His tag
T4 sequence: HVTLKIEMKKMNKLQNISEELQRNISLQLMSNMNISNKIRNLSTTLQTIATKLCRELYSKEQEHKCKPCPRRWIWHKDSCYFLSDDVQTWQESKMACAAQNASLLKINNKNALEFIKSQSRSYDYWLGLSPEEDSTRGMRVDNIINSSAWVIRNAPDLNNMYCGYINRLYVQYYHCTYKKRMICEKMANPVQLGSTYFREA

Human CD16b (FcγRIIIb) = target: T5, Human CD16b (FcγRIIIb) (human, UniProt O75015 17-200, limits assumed, biotinylated); assay: SPR 25C, average
T5 construct: Bought recombinant receptor; also called hFcγRIIIb; CD16b (FcγR3b)
T5 sequence (O75015 17-200 limits assumed): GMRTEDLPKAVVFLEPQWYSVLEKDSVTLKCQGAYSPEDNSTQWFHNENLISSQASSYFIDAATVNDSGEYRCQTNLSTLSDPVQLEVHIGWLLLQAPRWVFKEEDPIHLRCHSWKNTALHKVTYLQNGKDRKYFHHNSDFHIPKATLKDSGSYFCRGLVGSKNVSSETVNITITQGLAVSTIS

[5] = target: T4, Human CLEC12A-His (recombinant, K244 WT); assay: SPR, two-state fit (ka1); after pH 8, 40C, 2 wks
Protocol: Briefly, human Fc specific antibodies were covalently immobilized at a density ˜8000-10000 resonance units (RU) on carboxy methyl dextran matrix of a CM5 biosensor chip via amine-coupling chemistry to create an anti-hFc IgG chip. […] Association was monitored for 300 seconds and dissociation was monitored for 600 seconds. Surfaces were regenerated between cycles with three pulses of 10 mM glycine-HCl, pH 1.7 injected for 20 seconds at 100 μl/min. HBS-EP+ (1×) with 0.1 mg/ml BSA was used as running buffer throughout the experiment. Experiments were performed at physiological temperature of 37° C. To obtain kinetic rate constants and overall binding affinity, double-referenced data were fit to a two-state kinetic model using Biacore 8K Insight Evaluation software (Cytiva).

[6] = target: T6, human CLEC12A expressed on cells (human, UniProt Q5QGZ9 1-265); assay: flow cytometry, hCLEC12A+ Ba/F3
T6 construct: Transduced isogenic cells or endogenous expression on AML cells; also called RMA-hCLEC12A; Ba/F3-hCLEC12A
T6 sequence: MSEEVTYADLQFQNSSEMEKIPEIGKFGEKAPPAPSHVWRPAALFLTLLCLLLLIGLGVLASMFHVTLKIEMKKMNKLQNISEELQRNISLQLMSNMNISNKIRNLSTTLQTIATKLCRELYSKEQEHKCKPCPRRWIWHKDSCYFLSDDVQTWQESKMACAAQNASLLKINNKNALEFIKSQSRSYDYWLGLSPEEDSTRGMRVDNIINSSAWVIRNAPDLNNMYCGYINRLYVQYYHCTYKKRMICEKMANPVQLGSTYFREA

B1: F3'-1602 TriNKET (bispecific antibody, human IgG1, kappa)
chain: QLQLQESGPGLVKPSETLSLTCTVSGFSLTNYGLHWIRQPPGKCLEWIGVIWSGGKTDYNPSLKSRVTISKDTSKNQFSLKLSSVQAADTAVYYCAKYDYDDSLDYWGQGTLVTVSSGGGGSGGGGSGGGGSGGGGSDIQMTQSPSSLSASVGDRVTITCHASQNINFWLSWYQQKPGKAPKLLIYEASNLHTGVPSRFSGSGSGTRFTLTISSLQPEDIATYYCQQSHSYPLTFGCGTKLEIKGSDKTHTCPPCPAPELLGGPSVFLFPPKPKDTLMISRTPEVTCVVVDVSHEDPEVKFNWYVDGVEVHNAKTKPREEQYNSTYRVVSVLTVLHQDWLNGKEYKCKVSNKALPAPIEKTISKAKGQPREPRVYTLPPCRDELTKNQVSLTCLVKGFYPSDIAVEWESNGQPENNYKTTPPVLVSDGSFTLYSKLTVDKSRWQQGNVFSCSVMHEALHNHYTQKSLSLSPG
heavy: EVQLVESGGGLVKPGGSLRLSCAASGFTFSSYSMNWVRQAPGKGLEWVSSISSSSSYIYYADSVKGRFTISRDNAKNSLYLQMNSLRAEDTAVYYCARGAPIGAAAGWFDPWGQGTLVTVSSASTKGPSVFPLAPSSKSTSGGTAALGCLVKDYFPEPVTVSWNSGALTSGVHTFPAVLQSSGLYSLSSVVTVPSSSLGTQTYICNVNHKPSNTKVDKKVEPKSCDKTHTCPPCPAPELLGGPSVFLFPPKPKDTLMISRTPEVTCVVVDVSHEDPEVKFNWYVDGVEVHNAKTKPREEQYNSTYRVVSVLTVLHQDWLNGKEYKCKVSNKALPAPIEKTISKAKGQPREPQVCTLPPSRDELTENQVSLTCLVKGFYPSDIAVEWESNGQPENNYKTTPPVLDSDGSFFLYSWLTVDKSRWQQGNVFSCSVMHEALHNHYTQKSLSLSPG
light: DIQMTQSPSSVSASVGDRVTITCRASQGISSWLAWYQQKPGKAPKLLIYAASSLQSGVPSRFSGSGSGTDFTLTISSLQPEDFATYYCQQGVSFPRTFGGGTKVEIKRTVAAPSVFIFPPSDEQLKSGTASVVCLLNNFYPREAKVQWKVDNALQSGNSQESVTEQDSKDSTYSLSSTLTLSKADYEKHKVYACEVTHQGLSSPVTKSFNRGEC
notes: Trispecific F3' format: CLEC12A scFv-Fc paired with NKG2D Fab-Fc; Stressed and control samples of the stability studies are the same molecule; also called AB0237
B1 was tested, and the koff (mFc-hNKG2D) was 0.126 s⁻¹ and 0.13 s⁻¹ and 0.131 s⁻¹ and 0.132 s⁻¹ and the kon (mFc-hNKG2D) was 180000 M⁻¹ s⁻¹ and 184000 M⁻¹ s⁻¹ and 175000 M⁻¹ s⁻¹.

B2: AB0089 TriNKET (bispecific antibody, human IgG1, kappa)
chain: QLQLQESGPGLVKPSETLSLTCTVSGFSLTNYGLHWIRQPPGKCLEWIGVIWVGGATDYNPSLKSRVTISVDTSKNQFSLKLSSVQAADTAVYYCAKGDYGDTLDYWGQGTLVTVSSGGGGSGGGGSGGGGSGGGGSDIQMTQSPSSLSASVGDRVTITCHASQNINFWLSWYQQKPGKAPKLLIYEASNLHTGVPSRFSGSGSGTDFTLTISSLQPEDFATYYCQQSHSYPLTFGCGTKLEIKGSDKTHTCPPCPAPELLGGPSVFLFPPKPKDTLMISRTPEVTCVVVDVSHEDPEVKFNWYVDGVEVHNAKTKPREEQYNSTYRVVSVLTVLHQDWLNGKEYKCKVSNKALPAPIEKTISKAKGQPREPRVYTLPPCRDELTKNQVSLTCLVKGFYPSDIAVEWESNGQPENNYKTTPPVLVSDGSFTLYSKLTVDKSRWQQGNVFSCSVMHEALHNHYTQKSLSLSPG
heavy: EVQLVESGGGLVKPGGSLRLSCAASGFTFSSYSMNWVRQAPGKGLEWVSSISSSSSYIYYADSVKGRFTISRDNAKNSLYLQMNSLRAEDTAVYYCARGAPIGAAAGWFDPWGQGTLVTVSSASTKGPSVFPLAPSSKSTSGGTAALGCLVKDYFPEPVTVSWNSGALTSGVHTFPAVLQSSGLYSLSSVVTVPSSSLGTQTYICNVNHKPSNTKVDKKVEPKSCDKTHTCPPCPAPELLGGPSVFLFPPKPKDTLMISRTPEVTCVVVDVSHEDPEVKFNWYVDGVEVHNAKTKPREEQYNSTYRVVSVLTVLHQDWLNGKEYKCKVSNKALPAPIEKTISKAKGQPREPQVCTLPPSRDELTENQVSLTCLVKGFYPSDIAVEWESNGQPENNYKTTPPVLDSDGSFFLYSWLTVDKSRWQQGNVFSCSVMHEALHNHYTQKSLSLSPG
light: DIQMTQSPSSVSASVGDRVTITCRASQGISSWLAWYQQKPGKAPKLLIYAASSLQSGVPSRFSGSGSGTDFTLTISSLQPEDFATYYCQQGVSFPRTFGGGTKVEIKRTVAAPSVFIFPPSDEQLKSGTASVVCLLNNFYPREAKVQWKVDNALQSGNSQESVTEQDSKDSTYSLSSTLTLSKADYEKHKVYACEVTHQGLSSPVTKSFNRGEC
notes: F3' format heterodimer of three chains; human IgG1 Fc with EW-RVT and Y349C/S354C mutations; also called AB0089 Lot AB0089-002; CLEC12A TriNKET AB0089
Work on B2 yielded a Kd [1] of 350 nM, a koff [1] of 0.0279 s⁻¹ and a kon [1] of 79400 M⁻¹ s⁻¹. The Kd [2] was 383 nM, the koff [2] was 0.0289 s⁻¹ and the kon [2] was 75400 M⁻¹ s⁻¹. For the same binder, the “EC50, KHYG-1-CD16aV cytotoxicity assay; after pH 5.0, 40C, 2 wks” value [3] was 0.16 nM, the “EC50, KHYG-1-CD16aV cytotoxicity assay; control sample” value [3] was 0.11 nM and the kon [4] was 8.87e+06 M⁻¹ s⁻¹. It also gave a Kd (Human CD16b (FcγRIIIb)) of 8900 nM and a kon [5] of 9.93e+06 M⁻¹ s⁻¹.

B3: F3'-1602 TriNKET (other)
chain: QLQLQESGPGLVKPSETLSLTCTVSGFSLTNYGLHWIRQPPGKCLEWIGVIWSGGKTDYNPSLKSRVTISKDTSKNQFSLKLSSVQAADTAVYYCAKYDYDDSLDYWGQGTLVTVSSGGGGSGGGGSGGGGSGGGGSDIQMTQSPSSLSASVGDRVTITCHASQNINFWLSWYQQKPGKAPKLLIYEASNLHTGVPSRFSGSGSGTRFTLTISSLQPEDIATYYCQQSHSYPLTFGCGTKLEIKGSDKTHTCPPCPAPELLGGPSVFLFPPKPKDTLMISRTPEVTCVVVDVSHEDPEVKFNWYVDGVEVHNAKTKPREEQYNSTYRVVSVLTVLHQDWLNGKEYKCKVSNKALPAPIEKTISKAKGQPREPRVYTLPPCRDELTKNQVSLTCLVKGFYPSDIAVEWESNGQPENNYKTTPPVLVSDGSFTLYSKLTVDKSRWQQGNVFSCSVMHEALHNHYTQKSLSLSPG
heavy: EVQLVESGGGLVKPGGSLRLSCAASGFTFSSYSMNWVRQAPGKGLEWVSSISSSSSYIYYADSVKGRFTISRDNAKNSLYLQMNSLRAEDTAVYYCARGAPIGAAAGWFDPWGQGTLVTVSSASTKGPSVFPLAPSSKSTSGGTAALGCLVKDYFPEPVTVSWNSGALTSGVHTFPAVLQSSGLYSLSSVVTVPSSSLGTQTYICNVNHKPSNTKVDKKVEPKSCDKTHTCPPCPAPELLGGPSVFLFPPKPKDTLMISRTPEVTCVVVDVSHEDPEVKFNWYVDGVEVHNAKTKPREEQYNSTYRVVSVLTVLHQDWLNGKEYKCKVSNKALPAPIEKTISKAKGQPREPQVCTLPPSRDELTENQVSLTCLVKGFYPSDIAVEWESNGQPENNYKTTPPVLDSDGSFFLYSWLTVDKSRWQQGNVFSCSVMHEALHNHYTQKSLSLSPG
light: DIQMTQSPSSVSASVGDRVTITCRASQGISSWLAWYQQKPGKAPKLLIYAASSLQSGVPSRFSGSGSGTDFTLTISSLQPEDFATYYCQQGVSFPRTFGGGTKVEIKRTVAAPSVFIFPPSDEQLKSGTASVVCLLNNFYPREAKVQWKVDNALQSGNSQESVTEQDSKDSTYSLSSTLTLSKADYEKHKVYACEVTHQGLSSPVTKSFNRGEC
notes: CLEC12A scFv-Fc, NKG2D A49MI Fab-Fc, human IgG1 Fc; also called AB0237
For B3, the EC50 [6] was 14.4 nM and the “Max MFI” value [6] was 50200 MFI.
